B1: Nucleolar protein 3 (Rattus norvegicus (Rat)), Q62881 (parent)
chain: MGNMQERPSETIDRERKRLVETLQADSGLLLDALVARGVLTGPEYEALDALPDAERRVRRLLLLVQSKGEAACQELLRCAQQTVSMPDPAWDWQHVGPGYRDRSYDPPCPGHWTPEAPSSGTTCPGLPRASEEEEIGGPEDSEAVQPRTPEEPELEAEATKGDEPDLEQEMEPEPEPEVEPEPEPEPEPEPEPEPEPEPEPEPEREPDFQEGDESEGCENT
partner: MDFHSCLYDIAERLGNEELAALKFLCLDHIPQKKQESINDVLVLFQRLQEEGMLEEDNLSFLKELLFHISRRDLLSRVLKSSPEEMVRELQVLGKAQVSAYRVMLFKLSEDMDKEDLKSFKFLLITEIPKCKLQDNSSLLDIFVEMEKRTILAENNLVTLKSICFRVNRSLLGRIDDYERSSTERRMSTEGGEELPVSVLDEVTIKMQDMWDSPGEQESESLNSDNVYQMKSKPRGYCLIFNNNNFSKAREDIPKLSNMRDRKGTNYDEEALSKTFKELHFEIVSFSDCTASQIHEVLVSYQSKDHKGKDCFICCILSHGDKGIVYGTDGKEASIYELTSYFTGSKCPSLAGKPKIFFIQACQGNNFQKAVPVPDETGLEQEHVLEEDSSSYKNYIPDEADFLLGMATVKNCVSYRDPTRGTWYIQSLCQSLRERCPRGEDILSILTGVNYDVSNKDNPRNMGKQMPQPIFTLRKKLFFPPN

Variants of: B1
Settings: with casp8_rat Casp8, Q9JHX4

Row | Variant | effect of a mutation on the interaction
1 | T149D | disrupting interaction
